Data from patent US20230408521A1.

Tests used:
[1] = biological target: recombinant mature human GDF-15 protein (as expressed in Baculovirus-transfected HighFive insect cells) (human) (UniProt Q99988); test: SPR (Biorad ProteOn XPR36), KD=koff/kon
[2] = biological target: recombinant mature human GDF-15 protein (as expressed in Baculovirus-transfected HighFive insect cells) (human) (UniProt Q99988); test: SPR (Biorad ProteOn XPR36, GLC chip), GDF-15 immobilised, antibody as analyte, 1:1 Langmuir fit, 25 C
[3] = biological target: recombinant mature human GDF-15 protein derived from expression in E. coli (human) (UniProt Q99988); test: SPR (Biorad ProteOn XPR36), E. coli GDF-15 immobilised, antibody as analyte

Kd [1]: 0.79 nM
koff [2]: 0.00043 s⁻¹
kon [2]: 540000 M⁻¹ s⁻¹
deviation of rate constants against GDF-15 derived from insect cells [3]: 45%
fold difference of affinity values against GDF-15 derived from insect cells [3]: < 2 fold
Substance: monoclonal anti-human GDF-15 mAb-B1-23 (antibody)
